Patent EP4682162A1 (Neowise Biotechnology Co., Ltd., dated 2026)
Changes are numbered by the printed parent chain. Each block holds one binder with its values, some of them ahead of it.

Molecular target: T1, labeled peptide-MHC (HLA-A*02:01) tetramer (…-HLA-A*02:01 tetramer) (human)
T1 construct: Labeled tetramer used for flow cytometry staining; also called pMHC; pMHC tetramer
Test: tetramer staining of sorted T cell clones, flow cytometry

- binding result: binds
B1: nwTCR-2523 (TCR, V domains shown)
V domain 1: RKEVEQDPGPFNVPEGATVAFNCTYSNSASQSFFWYRQDCRKEPKLLMSVYSSGNEDGRFTAQLNRASQYISLLIRDSKLSDSATYLCVVNRGSQGNLIFGKGTKLSVKP
V domain 2: DAGVTQSPTHLIKTRGQQVTLRCSPKSGHDTVSWYQQALGQGPQFIFQYYEEEERQRGNFPDRFSGHQFPNYSSELNVNALLLGDSALYLCASSLVDYEQYFGPGTRLTVTE
notes: TCR on T cells

- binding result: binds
B2: nwTCR-2286 (TCR, V domains shown)
V domain 1: GQQLNQSPQSMFIQEGEDVSMNCTSSSIFNTWLWYKQDPGEGPVLLIALYKAGELTSNGRLTAQFGITRKDSFLNISASIPSDVGIYFCAGPEDDKIIFGKGTRLHILP
V domain 2: DSGVTQTPKHLITATGQRVTLRCSPRSGDLSVYWYQQSLDQGLQFLIQYYNGEERAKGNILERFSAQQFPDLHSELNLSSLELGDSALYFCASSPWLQGGNEQFFGPGTRLTVLE
notes: TCR on T cells

- binding result: binds
B3: nwTCR-2718 (TCR, V domains shown)
V domain 1: GQQLNQSPQSMFIQEGEDVSMNCTSSSIFNTWLWYKQDPGEGPVLLIALYKAGELTSNGRLTAQFGITRKDSFLNISASIPSDVGIYFCAGFSQGGSEKLVFGKGTKLTVNP
V domain 2: B2 V domain 2 with L97T, Q98A, E102T, Q103I, F104Y, P107E, T109S, R110W, L114V
notes: TCR on T cells

- binding result: binds
B4: nwTCR-2418 (TCR, V domains shown)
V domain 1: DQQVKQNSPSLSVQEGRISILNCDYTNSMFDYFLWYKKYPAEGPTFLISISSIKDKNEDGRFTVFLNKSAKHLSLHIVPSQPGDSAVYFCAASGVRGQNFVFGPGTRLSVLP
V domain 2: B2 V domain 2 with Q98A, N101R, F104Y, L114T
notes: TCR on T cells

- binding result: binds
B5: nwTCR-1906 (TCR, V domains shown)
V domain 1: RKEVEQDPGPFNVPEGATVAFNCTYSNSASQSFFWYRQDCRKEPKLLMSVYSSGNEDGRFTAQLNRASQYISLLIRDSKLSDSATYLCVVTQAGTALIFGKGTTLSVSS
V domain 2: not shown
notes: TCR on T cells

- binding result: binds
B6: nwTCR-2316 (TCR, V domains shown)
V domain 1: TQLLEQSPQFLSIQEGENLTVYCNSSSVFSSLQWYRQEPGEGPVLLVTVVTGGEVKKLKRLTFQFGDARKDSSLHITAAQPGDTGLYLCAGVDNYGQNFVFGPGTRLSVLP
V domain 2: DAGVIQSPRHEVTEMGQEVTLRCKPISGHNSLFWYRQTMMRGLELLIYFNNNVPIDDSGMPEDRFSAKMPNASFSTLKIQPSEPRDSAVYFCASSIAALGFGELFFGEGSRLTVLE
notes: TCR on T cells

- binding result: binds
B7: nwTCR-2916 (TCR, V domains shown)
V domain 1: GQQLNQSPQSMFIQEGEDVSMNCTSSSIFNTWLWYKQDPGEGPVLLIALYKAGELTSNGRLTAQFGITRKDSFLNISASIPSDVGIYFCAGQDDGGSQGNLIFGKGTKLSVKP
V domain 2: DSGVTQTPKHLITATGQRVTLRCSPRSGDLSVYWYQQSLDQGLQFLIQYYNGEERAKGNILERFSAQQFPDLHSELNLSSLELGDSALYFCASSPWTSGGDGELFFGEGSRLTVLE
notes: TCR on T cells

- binding result: binds
B8: nwTCR-2228 (TCR, V domains shown)
V domain 1: QKEVEQNSGPLSVPEGAIASLNCTYSDRGSQSFFWYRQYSGKSPELIMFIYSNGDKEDGRFTAQLNKASQYVSLLIRDSQPSDSATYLCAGHTGNQFYFGTGTSLTVIP
V domain 2: EPEVTQTPSHQVTQMGQEVILRCVPISNHLYFYWYRQILGQKVEFLVSFYNNEISEKSEIFDDQFSVERPDGSNFTLKIRSTKLEDSAMYFCASREDGYEQYFGPGTRLTVTE
notes: TCR on T cells

- binding result: binds
B9: nwTCR-3125 (TCR, V domains shown)
V domain 1: QKEVEQNSGPLSVPEGAIASLNCTYSDRVSQSFFWYRQYSGKSPELIMSIYSNGDKEDGRFTAQLNKASQYVSLLIRDSQPSDSATYLCALVSGTYKYIFGTGTRLKVLA
V domain 2: DTAVSQTPKYLVTQMGNDKSIKCEQNLGHDTMYWYKQDSKKFLKIMFSYNNKELIINETVPNRFSPKSPDKAHLNLHINSLELGDSAVYFCASSPGLAYEQYFGPGTRLTVTE
notes: TCR on T cells

- binding result: binds
B10: nwTCR-2555 (TCR, V domains shown)
V domain 1: AQSVSQHNHHVILSEAASLELGCNYSYGGTVNLFWYVQYPGQHLQLLLKYFSGDPLVKGIKGFEAEFIKSKFSFNLRKPSVQWSDTAEYFCAVKMDSSYKLIFGSGTRLLVRP
V domain 2: DGGITQSPKYLFRKEGQNVTLSCEQNLNHDAMYWYRQDPGQGLRLIYYSQIVNDFQKGDIAEGYSVSREKKESFPLTVTSAQKNPTAFYLCASLGLNYNEQFFGPGTRLTVLE
notes: TCR on T cells

- binding result: binds
B11: nwTCR-2383 (TCR, V domains shown)
V domain 1: GIQVEQSPPDLILQEGANSTLRCNFSDSVNNLQWFHQNPWGQLINLFYIPSGTKQNGRLSATTVATERYSLLYISSSQTTDSGVYFCAVMPSGTYKYIFGTGTRLKVLA
V domain 2: EAQVTQNPRYLITVTGKKLTVTCSQNMNHEYMSWYRQDPGLGLRQIYYSMNVEVTDKGDVPEGYKVSRKEKRNFPLILESPSPNQTSLYFCASSPSSGYNEQFFGPGTRLTVLE
notes: TCR on T cells

- binding result: binds
B12: nwTCR-2720 (TCR, V domains shown)
V domain 1: SQQGEEDPQALSIQEGENATMNCSYKTSINNLQWYRQNSGRGLVHLILIRSNEREKHSGRLRVTLDTSKKSSSLLITASRAADTASYFCATDLSGAGSYQLTFGKGTKLSVIP
V domain 2: B11 V domain 2 with P95L, S96G, S97T, Y99F, N100G, Q102L, P106E, T108S
notes: TCR on T cells

- binding result: binds
B13: nwTCR-2970 (TCR, V domains shown)
V domain 1: QQPVQSPQAVILREGEDAVINCSSSKALYSVHWYRQKHGEAPVFLMILLKGGEQKGHDKISASFNEKKQQSSLYLTASQLSYSGTYFCGTEFRNDYKLSFGAGTTVTVRA
V domain 2: B11 V domain 2 with S96G, S97T, Y99G, N100Y, E101G, Q102Y, F103T, P106S, L113V
notes: TCR on T cells

- binding result: binds
B14: nwTCR-3095 (TCR, V domains shown)
V domain 1: DQQVKQNSPSLSVQEGRISILNCDYTNSMFDYFLWYKKYPAEGPTFLISISSIKDKNEDGRFTVFLNKSAKHLSLHIVPSQPGDSAVYFCAAFASDSNYQLIWGAGTKLIIKP
V domain 2: DTAVSQTPKYLVTQMGNDKSIKCEQNLGHDTMYWYKQDSKKFLKIMFSYNNKELIINETVPNRFSPKSPDKAHLNLHINSLELGDSAVYFCASSPWTSGGNGELFFGEGSRLTVLE
notes: TCR on T cells

- binding result: binds
B15: nwTCR-3028 (TCR, V domains shown)
V domain 1: SQQGEEDPQALSIQEGENATMNCSYKTSINNLQWYRQNSGRGLVHLILIRSNEREKHSGRLRVTLDTSKKSSSLLITASRAADTASYFCATDVKSSYKLIFGSGTRLLVRP
V domain 2: AAGVIQSPRHLIKEKRETATLKCYPIPRHDTVYWYQQGPGQDPQFLISFYEKMQSDKGSIPDRFSAQQFSDYHSELNMSSLELGDSALYFCASSLGLLGNEQFFGPGTRLTVLE
notes: TCR on T cells

- binding result: binds
B16: nwTCR-2170 (TCR, V domains shown)
V domain 1: GQQLNQSPQSMFIQEGEDVSMNCTSSSIFNTWLWYKQDPGEGPVLLIALYKAGELTSNGRLTAQFGITRKDSFLNISASIPSDVGIYFCAGQASGTYKYIFGTGTRLKVLA
V domain 2: EAQVTQNPRYLITVTGKKLTVTCSQNMNHEYMSWYRQDPGLGLRQIYYSMNVEVTDKGDVPEGYKVSRKEKRNFPLILESPSPNQTSLYFCASSSGTSDEQYFGPGTRLTVTE
notes: TCR on T cells

- binding result: binds
B17: nwTCR-2793 (TCR, V domains shown)
V domain 1: QKEVEQNSGPLSVPEGAIASLNCTYSDRVSQSFFWYRQYSGKSPELIMSIYSNGDKEDGRFTAQLNKASQYVSLLIRDSQPSDSATYLCAVVSSNDYKLSFGAGTTVTVRA
V domain 2: B16 V domain 2 with S95P, S98I, D99G, Q101L, Y102F, P105E, T107S, T112L
notes: TCR on T cells

- binding result: binds
B18: nwTCR-2719 (TCR, V domains shown)
V domain 1: B11 V domain 1 with M90L, P91A, S92P
V domain 2: B16 V domain 2 with S95W, T97S, S98G, D99Y
notes: TCR on T cells

- binding result: binds
B19: nwTCR-2915 (TCR, V domains shown)
V domain 1: GESVGLHLPTLSVQEGDNSIINCAYSNSASDYFIWYKQESGKGPQFIIDIRSNMDKRQGQRVTVLLNKTVKHLSLQIAATQPGDSAVYFCAESYGQKLLFARGTMLKVDL
V domain 2: B16 V domain 2 with S95F, G96W, T97S, S98A, D99G, Q101L, Y102F, P105E, T107S, T112L
notes: TCR on T cells

- binding result: binds
B20: nwTCR-2285 (TCR, V domains shown)
V domain 1: KNEVEQSPQNLTAQEGEFITINCSYSVGISALHWLQQHPGGGIVSLFMLSSGKKKHGRLIATINIQEKHSSLHITASHPRDSAVYICALNSDSNYQLIWGAGTKLIIKP
V domain 2: B16 V domain 2 with S93T, S95P, S98L, D99Y
notes: TCR on T cells

- binding result: binds
B21: nwTCR-2583 (TCR, V domains shown)
V domain 1: GQSLEQPSEVTAVEGAIVQINCTYQTSGFYGLSWYQQHDGGAPTFLSYNALDGLEETGRFSSFLSRSDSYGYLLLQELQMKDSASYFCALGTEDKIIFGKGTRLHILP
V domain 2: EAQVTQNPRYLITVTGKKLTVTCSQNMNHEYMSWYRQDPGLGLRQIYYSMNVEVTDKGDVPEGYKVSRKEKRNFPLILESPSPNQTSLYFCASRISLGANYGYTFGSGTRLTVVE
notes: TCR on T cells

- binding result: binds
B22: nwTCR-1953 (TCR, V domains shown)
V domain 1: DAKTTQPNSMESNEEEPVHLPCNHSTISGTDYIHWYRQLPSQGPEYVIHGLTSNVNNRMASLAIAEDRKSSTLILHRATLRDAAVYYCILRAGGSGDKLTFGTGTRLAVRP
V domain 2: DTEVTQTPKHLVMGMTNKKSLKCEQHMGHRAMYWYKQKAKKPPELMFVYSYEKLSINESVPSRFSPECPNSSLLNLHLHALQPEDSALYLCASSQDPFWGAGELFFGEGSRLTVLE
notes: TCR on T cells
